Results as given in PMC2188614 (The Journal of Experimental Medicine, 1990).

Target: the molecule itself
Assay: 2-D nonreducing/reducing SDS-PAGE

| Protein | stoichiometry N |
| --- | --- |
| CD3 eta (transfected cDNA) (natural protein, murine, UniProt P24161-2 22-206, looked up) QSFGLLDPKLCYLLDGILFIYGVIITALYLRAKFSRSAETAANLQDPNQLYNELNLGRREEYDVLEKKRARDPEMGGKQQRRRNPQEGVYNALQKDKMAEAYSEIGTKGERRRGKGHDGLYQDSHFQAVQFGNRREREGSELTRTLGLRARPKGESTQQSSQSCASVFSIPTLWSPWPPSSSSQL | 2 |
| CD3 zeta (transfected cDNA) (natural protein, murine, UniProt P24161-1 22-164, looked up) QSFGLLDPKLCYLLDGILFIYGVIITALYLRAKFSRSAETAANLQDPNQLYNELNLGRREEYDVLEKKRARDPEMGGKQQRRRNPQEGVYNALQKDKMAEAYSEIGTKGERRRGKGHDGLYQGLSTATKDTYDALHMQTLAPR | 2 |
| CD3 zeta (endogenous) (natural protein, murine, UniProt P24161-1 22-164, looked up) QSFGLLDPKLCYLLDGILFIYGVIITALYLRAKFSRSAETAANLQDPNQLYNELNLGRREEYDVLEKKRARDPEMGGKQQRRRNPQEGVYNALQKDKMAEAYSEIGTKGERRRGKGHDGLYQGLSTATKDTYDALHMQTLAPR | 2 |
